Test results as given in article PMC10375638.

Biological target: T1, …3 (SEP3) fused to mVenus, expressed in N. benthamiana (Arabidopsis thaliana), O22456
T1 chain: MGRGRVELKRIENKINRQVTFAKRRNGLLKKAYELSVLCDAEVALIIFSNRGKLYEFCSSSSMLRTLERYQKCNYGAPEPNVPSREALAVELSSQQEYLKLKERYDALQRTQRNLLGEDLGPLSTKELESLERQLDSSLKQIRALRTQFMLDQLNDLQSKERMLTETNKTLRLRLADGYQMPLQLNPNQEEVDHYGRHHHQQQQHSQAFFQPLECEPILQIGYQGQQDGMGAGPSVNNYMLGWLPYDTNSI
Assay: FRET or BRET; FLIM-FRET with one pattern analysis (OPA) in nuclei of transiently expressing N. benthamiana leaf epidermis cells; donor mVenus fusion, acceptor mCherry fusion; BINDING = relative amplitude of the FRET fraction; nucleoli excluded; FRET efficiency only for nuclei with BINDING above 10%
Details: remark: other sources report otherwise

BINDING: 28.1%
FRET efficiency: 38.5%
B1: …3 (SEP3) fused to mVenus, expressed in N. benthamiana, O22456 1-251 (natural protein)
chain: MGRGRVELKRIENKINRQVTFAKRRNGLLKKAYELSVLCDAEVALIIFSNRGKLYEFCSSSSMLRTLERYQKCNYGAPEPNVPSREALAVELSSQQEYLKLKERYDALQRTQRNLLGEDLGPLSTKELESLERQLDSSLKQIRALRTQFMLDQLNDLQSKERMLTETNKTLRLRLADGYQMPLQLNPNQEEVDHYGRHHHQQQQHSQAFFQPLECEPILQIGYQGQQDGMGAGPSVNNYMLGWLPYDTNSI
